The record followed here is the supplement of paper PMC12042874.

± gives the uncertainty stated by the source.

The series is described as follows: amyloid nucleation score (Sup35N fusion, yeast selection) (log enrichment); library NNK3; higher = more nucleation; inactive = no reads after selection. In short, it runs like this: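 Plasmid inserts were Illumina-sequenced at input and output from psi-negative yeast expressing Sup35N fused to peptides of 20 random codons. The yeast were induced with 100 μM copper sulfate for 24 hours and grown 7 days at 30°C on medium lacking adenine and uracil, and sequences with under 100 input reads were excluded. Nucleation score is the DiMSum log enrichment of output over input reads, centred on the mode score of non-aggregating sequences.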
Turning to SVDCYCTKKTYMQWSGSVRH, the amyloid nucleation score was found to be 0.66 ± 0.23.

For the substance SVDEVRCTCVYSCGVWPGGC, the amyloid nucleation score entry was “inactive”.

Consider SVDYQGYNGKKYLFTISLRC, for which the amyloid nucleation score entry is “inactive”.

As to SVFFYKYQALIRNEGEK, the amyloid nucleation score result is “inactive”.

For the substance SVFRDSRPLLYDVNMVNGGG, the amyloid nucleation score result is “inactive”.

On to SVIAMYQFVYYYVSKMVNID, for which the amyloid nucleation score entry was “inactive”.

Regarding SVLHLWGLDYFNGEYTMRKG, the amyloid nucleation score was 1.02 ± 0.17.

In the case of SVLVDY, the amyloid nucleation score entry was “inactive”.

Take SVMMVMEEFFQWGLKVNMRT: the amyloid nucleation score is -0.078 ± 0.54.

As for SVNIMVMTVMNY, the amyloid nucleation score is 1.81 ± 0.058.

For SVNSGVMIAEPDLRWCGSAT, the amyloid nucleation score entry is “inactive”.

For SVPDCELVAYKSSLWCTHLT, the amyloid nucleation score result is “inactive”.

With SVQLGIKNVITLRSYVYKTW, the amyloid nucleation score was -0.208 ± 0.6.

For SVRRYRSYLVLRRRTGHDRN, the amyloid nucleation score result is “inactive”.

Consider SVRYTV, for which the amyloid nucleation score result was “inactive”.

Take SVSFFAF: the amyloid nucleation score entry was “inactive”.

Substance SVSLCFYFGIDYRILLMPEN came in with an amyloid nucleation score of 0.088 ± 0.73.

With SVSVVKSSEILSSMGPCGGT, the amyloid nucleation score entry was “inactive”.

In the case of SVVAYFLLIRYGDYRYHLQM, the amyloid nucleation score entry was “inactive”.

For SVVQIHAERYE, the amyloid nucleation score result was “inactive”.

As to SWDHTVNKLGTPTVGSGSND, the amyloid nucleation score entry is “inactive”.

Regarding SWGQVGYIEFFIGSSCHVS, the amyloid nucleation score is -0.378 ± 0.84.

SWKVTMKPGNFWV: the amyloid nucleation score entry is “inactive”.

Consider SWLFGLCYF, for which the amyloid nucleation score amounted to 2.06 ± 0.085.

With SWNRGNLTM, the amyloid nucleation score entry was “inactive”.

For the substance SWNVFFFSGFRVPYYALTGV, the amyloid nucleation score was found to be 0.254 ± 0.82.

As to SWYYLQFIFMDFMINFCVME, the amyloid nucleation score entry was “inactive”.

SYAPKMSIRGMNFKTVMVFL yielded an amyloid nucleation score of 2.37 ± 0.076.

As for SYCKATRSVRQSNSARVVVR, the amyloid nucleation score entry was “inactive”.

For the substance SYCWRVSHGEYH, the amyloid nucleation score entry was “inactive”.

For SYEAF, the amyloid nucleation score result is “inactive”.

For the substance SYFRRIRWQLEEHLLLLWR, the amyloid nucleation score result was “inactive”.

Consider SYFVAAVYYQDERNNGFCGQ, for which the amyloid nucleation score entry was “inactive”.

As for SYGQSCCQDTGLSRNALMQ, the amyloid nucleation score result is “inactive”.

As to SYHYFGRYCGFR, the amyloid nucleation score result is “inactive”.

SYKSLNCALFLQ displayed an amyloid nucleation score of 0.574 ± 0.24.

On to SYLESISHPALESARVYVST, for which the amyloid nucleation score result was “inactive”.

In the case of SYMPGNLSGLWAHLLMEKNC, the amyloid nucleation score result is “inactive”.

In the case of SYNDSLCLDVQTIYPLHSPS, the amyloid nucleation score result is “inactive”.

For the substance SYNILHDVSQLGTRQPPLE, the amyloid nucleation score result is “inactive”.

As to SYQDMLSYNRMR, the amyloid nucleation score result was “inactive”.

SYQWWLCFFSLFFIGGDFRT: the amyloid nucleation score entry is “inactive”.

For the substance SYRIRCYAVNITPIAMYIIC, the amyloid nucleation score result is “inactive”.

The substance SYRVCMCSTLVVVVSSRGLS yielded an amyloid nucleation score of 0.823 ± 0.17.

For SYRYNRLYHWVHDLLCSTLV, the amyloid nucleation score result is “inactive”.

Regarding SYVVRLMSLVAWN, the amyloid nucleation score entry was “inactive”.

With TAALRIDDQRKAYLGVPRFS, the amyloid nucleation score entry was “inactive”.

For TACQNDCVGG, the amyloid nucleation score entry was “inactive”.

With TAFNHRMPGDLWRDDGGARV, the amyloid nucleation score worked out at 0.784 ± 0.24.

As to TAIYIDRNECSLKVYRIKDK, the amyloid nucleation score was 0.612 ± 0.44.

Regarding TALGSDMTYITARRI, the amyloid nucleation score stood at 0.671 ± 0.15.

In the case of TARVMILP, the amyloid nucleation score result was “inactive”.

Take TATLAC: the amyloid nucleation score result was “inactive”.

TAVWRFATSGKFFYSQSLGM had an amyloid nucleation score of 1.41 ± 0.14.

The substance TCCICIMSSYRLGRNLLIEL had an amyloid nucleation score of -0.075 ± 0.26.

The substance TCCLIF had an amyloid nucleation score of 1.87 ± 0.073.

Substance TCCVIICEFLRRMVSAQSSL displayed an amyloid nucleation score of 0.758 ± 0.28.

For TCFESLGLDVPIPYNRWVRS, the amyloid nucleation score result was “inactive”.

For the substance TCMSVNVFRGYIIAW, the amyloid nucleation score entry is “inactive”.

For the substance TCNKLIVRLCDAHKERA, the amyloid nucleation score came out at 0.745 ± 0.13.

For the substance TCNYMSGGFALRFTISYGGA, the amyloid nucleation score result was “inactive”.

Turning to TCSHIIPYWYGVRNSQVRYS, the amyloid nucleation score result is “inactive”.

TCSKPGSSSMHSAVGKTMSA: the amyloid nucleation score result was “inactive”.

Turning to TCSLFFSYPYIGRQHGCGRY, the amyloid nucleation score was determined as 0.444 ± 0.46.

Consider TCSVTEMVTL, for which the amyloid nucleation score result was “inactive”.

Turning to TCSYKSC, the amyloid nucleation score entry is “inactive”.

With TCWCGVRIFFGPQLASSVWL, the amyloid nucleation score result was “inactive”.

The substance TDFMSFINVERMCVILYPFA gave an amyloid nucleation score of 1.36 ± 0.077.

For TDFTYSLTFVYKLGEKTVDI, the amyloid nucleation score result was “inactive”.

Turning to TDGYFYDRSSVERSL, the amyloid nucleation score entry was “inactive”.

Consider TDISLCNLGKHKVLRGL, for which the amyloid nucleation score entry was “inactive”.

Consider TDVLELVSTHCRYGFSVPQP, for which the amyloid nucleation score entry was “inactive”.

Turning to TDWYVIF, the amyloid nucleation score result was “inactive”.

TDYLFLSKWVTLCLSVWCNY gave an amyloid nucleation score of -0.084 ± 0.3.

In the case of TEGKAVSEV, the amyloid nucleation score result is “inactive”.

Turning to TEMMTFGFSGVMFVRVMFWL, the amyloid nucleation score entry was “inactive”.

Substance TERESMCFLYWVSRRHYTGN showed an amyloid nucleation score of -0.541 ± 0.55.

As for TERYATNSLCSGIKMALRQV, the amyloid nucleation score result was “inactive”.

For the substance TEVFVHFTCEIGYIFLILFQ, the amyloid nucleation score entry is “inactive”.

For TEYCIYFLEV, the amyloid nucleation score result was “inactive”.

For the substance TEYFSRCRF, the amyloid nucleation score amounted to 0.36 ± 0.49.

Consider TFFNFVDGTSVWRFAGRHIY, for which the amyloid nucleation score entry was “inactive”.

On to TFFTGKIRNKAVFEDSSYCK, for which the amyloid nucleation score result is “inactive”.

As for TFKLD, the amyloid nucleation score entry is “inactive”.

TFLKGSLFCCYYTRDAVDYI yielded an amyloid nucleation score of 2.64 ± 0.054.

With TFMPIGLNL, the amyloid nucleation score result is “inactive”.

Take TFRFLSRLSRTLWAFSKGLC: the amyloid nucleation score result was “inactive”.

On to TFSDVGLFYLTQYDKVPFDL, for which the amyloid nucleation score entry was “inactive”.

For TFSYGSFLRSYLLMC, the amyloid nucleation score result is “inactive”.

Consider TFVLRDTDVCKCSSYKRPNF, for which the amyloid nucleation score result is “inactive”.

In the case of TGGRAPHRCVYSD, the amyloid nucleation score result is “inactive”.

With TGIYAF, the amyloid nucleation score result is “inactive”.

In the case of TGRAFIIPVHAFRYDSVVGV, the amyloid nucleation score result was “inactive”.

Turning to TGSVVYLKRDVPAIFKFLLV, the amyloid nucleation score entry was “inactive”.

Take TGWSWISLYWLCSNMVIVNR: the amyloid nucleation score entry was “inactive”.

Substance THCFNYILYSCSRAQSSCKY came in with an amyloid nucleation score of 2.29 ± 0.059.

Take THDSMHKCERMITPRGGCQQ: the amyloid nucleation score result is “inactive”.
